Measured values published in US10941182 (Amgen, dated 2021).
Starred links: 1 amine or outer side, 2 acyl side, 3 side chain; linkers in the order of their positions; H or OH if unused. Non-standard residues stand in square brackets, D forms with d. *: point of attachment. AC4Abu = α-carboxy-4-aminobutyric acid, O=C(C(CCN[*:1])C(=O)[*:3])[*:2]; Oic = O=C(O)[C@@H]1C[C@@H]2CCCC[C@@H]2N1; Phe(4-Cl) = N[C@@H](Cc1ccc(Cl)cc1)C(=O)O; d(β3hF) = N[C@@H](CC(=O)O)Cc1ccccc1; NMeR = CN[C@@H](CCCNC(=N)N)C(=O)O; Palmitoyl = CCCCCCCCCCCCCCCC(=O)*; β3hF = N[C@H](CC(=O)O)Cc1ccccc1; Cha = N[C@@H](CC1CCCCC1)C(=O)O; αMeP = C[C@@]1(C(=O)O)CCCN1; β3hP = O=C(O)C[C@@H]1CCCN1; Nle = CCCC[C@H](N)C(=O)O; AEEA = NCCOCCOCC(=O)O; Aib = CC(C)(N)C(=O)O; Inp = O=C(O)C1CCNCC1; Nip = nipecotic acid; βAla = NCCC(=O)O

T1: rat APJ receptor (rat, UniProt Q9JHG3 1-377)
T1 sequence (looked up): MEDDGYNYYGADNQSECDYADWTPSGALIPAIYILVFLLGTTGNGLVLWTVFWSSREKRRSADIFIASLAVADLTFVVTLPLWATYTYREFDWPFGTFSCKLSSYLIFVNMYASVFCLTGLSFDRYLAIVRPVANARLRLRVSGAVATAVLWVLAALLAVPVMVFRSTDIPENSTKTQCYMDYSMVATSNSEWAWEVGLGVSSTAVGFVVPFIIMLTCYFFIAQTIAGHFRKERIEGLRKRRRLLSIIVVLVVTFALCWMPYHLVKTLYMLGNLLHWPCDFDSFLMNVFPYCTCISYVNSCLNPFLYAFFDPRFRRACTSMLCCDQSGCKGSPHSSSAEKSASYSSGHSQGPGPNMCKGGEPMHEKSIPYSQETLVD

T2: human APJ receptor (human, UniProt P35414 1-380)
T2 sequence (looked up): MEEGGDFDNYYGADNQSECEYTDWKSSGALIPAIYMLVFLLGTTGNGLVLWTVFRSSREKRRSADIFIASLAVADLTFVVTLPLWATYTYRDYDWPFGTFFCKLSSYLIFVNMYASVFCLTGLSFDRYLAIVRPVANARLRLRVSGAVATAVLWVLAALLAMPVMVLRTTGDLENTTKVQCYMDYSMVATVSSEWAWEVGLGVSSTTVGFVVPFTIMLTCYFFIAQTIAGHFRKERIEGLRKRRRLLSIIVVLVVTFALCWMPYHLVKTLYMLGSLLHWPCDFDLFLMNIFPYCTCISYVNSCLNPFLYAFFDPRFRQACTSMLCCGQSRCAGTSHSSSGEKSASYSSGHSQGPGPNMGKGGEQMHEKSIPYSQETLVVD

B1: SEQ ID NO: 583 (peptide)
peptide: Palmitoyl-[AC4Abu][AEEA][AEEA][dQ]RP[NMeR][Cha]SHKG[Inp][Nle][Aib][Phe(4-Cl)]-OH
SMILES: CCCCCCCCCCCCCCCC(=O)NCCC(C(=O)O)C(=O)NCCOCCOCC(=O)NCCOCCOCC(=O)N[C@H](CCC(N)=O)C(=O)N[C@@H](CCCNC(=N)N)C(=O)N1CCC[C@H]1C(=O)N(C)[C@@H](CCCNC(=N)N)C(=O)N[C@@H](CC1CCCCC1)C(=O)N[C@@H](CO)C(=O)N[C@@H](Cc1c[nH]cn1)C(=O)N[C@@H](CCCCN)C(=O)NCC(=O)N1CCC(C(=O)N[C@@H](CCCC)C(=O)NC(C)(C)C(=O)N[C@@H](Cc2ccc(Cl)cc2)C(=O)O)CC1
B2: SEQ ID NO: 567 (peptide)
peptide: Palmitoyl-[AC4Abu][AEEA][AEEA][dQ]RP[NMeR][Cha]SHKG[Oic][Nle]P[d(β3hF)]-OH
SMILES: CCCCCCCCCCCCCCCC(=O)NCCC(C(=O)O)C(=O)NCCOCCOCC(=O)NCCOCCOCC(=O)N[C@H](CCC(N)=O)C(=O)N[C@@H](CCCNC(=N)N)C(=O)N1CCC[C@H]1C(=O)N(C)[C@@H](CCCNC(=N)N)C(=O)N[C@@H](CC1CCCCC1)C(=O)N[C@@H](CO)C(=O)N[C@@H](Cc1c[nH]cn1)C(=O)N[C@@H](CCCCN)C(=O)NCC(=O)N1[C@H](C(=O)N[C@@H](CCCC)C(=O)N2CCC[C@H]2C(=O)N[C@@H](CC(=O)O)Cc2ccccc2)C[C@@H]2CCCC[C@@H]21
B3: SEQ ID NO: 569 (peptide)
peptide: Palmitoyl-[AC4Abu][AEEA][AEEA][dQ]RP[NMeR][Cha]SHKG[Oic][Nle][Aib][d(β3hF)]-OH
SMILES: CCCCCCCCCCCCCCCC(=O)NCCC(C(=O)O)C(=O)NCCOCCOCC(=O)NCCOCCOCC(=O)N[C@H](CCC(N)=O)C(=O)N[C@@H](CCCNC(=N)N)C(=O)N1CCC[C@H]1C(=O)N(C)[C@@H](CCCNC(=N)N)C(=O)N[C@@H](CC1CCCCC1)C(=O)N[C@@H](CO)C(=O)N[C@@H](Cc1c[nH]cn1)C(=O)N[C@@H](CCCCN)C(=O)NCC(=O)N1[C@H](C(=O)N[C@@H](CCCC)C(=O)NC(C)(C)C(=O)N[C@@H](CC(=O)O)Cc2ccccc2)C[C@@H]2CCCC[C@@H]21
B4: SEQ ID NO: 570 (peptide)
peptide: Palmitoyl-[AC4Abu][AEEA][AEEA][dQ]RP[NMeR][Cha]SHKG[Oic][Nle][αMeP][d(β3hF)]-OH
SMILES: CCCCCCCCCCCCCCCC(=O)NCCC(C(=O)O)C(=O)NCCOCCOCC(=O)NCCOCCOCC(=O)N[C@H](CCC(N)=O)C(=O)N[C@@H](CCCNC(=N)N)C(=O)N1CCC[C@H]1C(=O)N(C)[C@@H](CCCNC(=N)N)C(=O)N[C@@H](CC1CCCCC1)C(=O)N[C@@H](CO)C(=O)N[C@@H](Cc1c[nH]cn1)C(=O)N[C@@H](CCCCN)C(=O)NCC(=O)N1[C@H](C(=O)N[C@@H](CCCC)C(=O)N2CCC[C@@]2(C)C(=O)N[C@@H](CC(=O)O)Cc2ccccc2)C[C@@H]2CCCC[C@@H]21
B5: SEQ ID NO: 571 (peptide)
peptide: Palmitoyl-[AC4Abu][AEEA][AEEA][dQ]RP[NMeR][Cha]SHKG[Oic][Nle][β3hP][d(β3hF)]-OH
SMILES: CCCCCCCCCCCCCCCC(=O)NCCC(C(=O)O)C(=O)NCCOCCOCC(=O)NCCOCCOCC(=O)N[C@H](CCC(N)=O)C(=O)N[C@@H](CCCNC(=N)N)C(=O)N1CCC[C@H]1C(=O)N(C)[C@@H](CCCNC(=N)N)C(=O)N[C@@H](CC1CCCCC1)C(=O)N[C@@H](CO)C(=O)N[C@@H](Cc1c[nH]cn1)C(=O)N[C@@H](CCCCN)C(=O)NCC(=O)N1[C@H](C(=O)N[C@@H](CCCC)C(=O)N2CCC[C@H]2CC(=O)N[C@@H](CC(=O)O)Cc2ccccc2)C[C@@H]2CCCC[C@@H]21
B6: SEQ ID NO: 572 (peptide)
peptide: Palmitoyl-[AC4Abu][AEEA][AEEA][dQ]RP[NMeR][Cha]SHKG[Oic][Nle][βAla][d(β3hF)]-OH
SMILES: CCCCCCCCCCCCCCCC(=O)NCCC(C(=O)O)C(=O)NCCOCCOCC(=O)NCCOCCOCC(=O)N[C@H](CCC(N)=O)C(=O)N[C@@H](CCCNC(=N)N)C(=O)N1CCC[C@H]1C(=O)N(C)[C@@H](CCCNC(=N)N)C(=O)N[C@@H](CC1CCCCC1)C(=O)N[C@@H](CO)C(=O)N[C@@H](Cc1c[nH]cn1)C(=O)N[C@@H](CCCCN)C(=O)NCC(=O)N1[C@H](C(=O)N[C@@H](CCCC)C(=O)NCCC(=O)N[C@@H](CC(=O)O)Cc2ccccc2)C[C@@H]2CCCC[C@@H]21
B7: SEQ ID NO: 573 (peptide)
peptide: Palmitoyl-[AC4Abu][AEEA][AEEA][dQ]RP[NMeR][Cha]SHKG[Oic][Nle][d(β3hF)]-OH
SMILES: CCCCCCCCCCCCCCCC(=O)NCCC(C(=O)O)C(=O)NCCOCCOCC(=O)NCCOCCOCC(=O)N[C@H](CCC(N)=O)C(=O)N[C@@H](CCCNC(=N)N)C(=O)N1CCC[C@H]1C(=O)N(C)[C@@H](CCCNC(=N)N)C(=O)N[C@@H](CC1CCCCC1)C(=O)N[C@@H](CO)C(=O)N[C@@H](Cc1c[nH]cn1)C(=O)N[C@@H](CCCCN)C(=O)NCC(=O)N1[C@H](C(=O)N[C@@H](CCCC)C(=O)N[C@@H](CC(=O)O)Cc2ccccc2)C[C@@H]2CCCC[C@@H]21
B8: SEQ ID NO: 575 (peptide)
peptide: Palmitoyl-[AC4Abu][AEEA][AEEA][dQ]RP[NMeR][Cha]SHKG[Oic][Nle]P[β3hF]-OH
SMILES: CCCCCCCCCCCCCCCC(=O)NCCC(C(=O)O)C(=O)NCCOCCOCC(=O)NCCOCCOCC(=O)N[C@H](CCC(N)=O)C(=O)N[C@@H](CCCNC(=N)N)C(=O)N1CCC[C@H]1C(=O)N(C)[C@@H](CCCNC(=N)N)C(=O)N[C@@H](CC1CCCCC1)C(=O)N[C@@H](CO)C(=O)N[C@@H](Cc1c[nH]cn1)C(=O)N[C@@H](CCCCN)C(=O)NCC(=O)N1[C@H](C(=O)N[C@@H](CCCC)C(=O)N2CCC[C@H]2C(=O)N[C@H](CC(=O)O)Cc2ccccc2)C[C@@H]2CCCC[C@@H]21
B9: SEQ ID NO: 577 (peptide)
peptide: Palmitoyl-[AC4Abu][AEEA][AEEA][dQ]RP[NMeR][Cha]SHKG[Oic][Nle][Aib][β3hF]-OH
SMILES: CCCCCCCCCCCCCCCC(=O)NCCC(C(=O)O)C(=O)NCCOCCOCC(=O)NCCOCCOCC(=O)N[C@H](CCC(N)=O)C(=O)N[C@@H](CCCNC(=N)N)C(=O)N1CCC[C@H]1C(=O)N(C)[C@@H](CCCNC(=N)N)C(=O)N[C@@H](CC1CCCCC1)C(=O)N[C@@H](CO)C(=O)N[C@@H](Cc1c[nH]cn1)C(=O)N[C@@H](CCCCN)C(=O)NCC(=O)N1[C@H](C(=O)N[C@@H](CCCC)C(=O)NC(C)(C)C(=O)N[C@H](CC(=O)O)Cc2ccccc2)C[C@@H]2CCCC[C@@H]21
B10: SEQ ID NO: 578 (peptide)
peptide: Palmitoyl-[AC4Abu][AEEA][AEEA][dQ]RP[NMeR][Cha]SHKG[Oic][Nle][β3hF]-OH
SMILES: CCCCCCCCCCCCCCCC(=O)NCCC(C(=O)O)C(=O)NCCOCCOCC(=O)NCCOCCOCC(=O)N[C@H](CCC(N)=O)C(=O)N[C@@H](CCCNC(=N)N)C(=O)N1CCC[C@H]1C(=O)N(C)[C@@H](CCCNC(=N)N)C(=O)N[C@@H](CC1CCCCC1)C(=O)N[C@@H](CO)C(=O)N[C@@H](Cc1c[nH]cn1)C(=O)N[C@@H](CCCCN)C(=O)NCC(=O)N1[C@H](C(=O)N[C@@H](CCCC)C(=O)N[C@H](CC(=O)O)Cc2ccccc2)C[C@@H]2CCCC[C@@H]21
B11: SEQ ID NO: 580 (peptide)
peptide: Palmitoyl-[AC4Abu][AEEA][AEEA][dQ]RP[NMeR][Cha]SHKG[Oic][Aib][Phe(4-Cl)]-OH
SMILES: CCCCCCCCCCCCCCCC(=O)NCCC(C(=O)O)C(=O)NCCOCCOCC(=O)NCCOCCOCC(=O)N[C@H](CCC(N)=O)C(=O)N[C@@H](CCCNC(=N)N)C(=O)N1CCC[C@H]1C(=O)N(C)[C@@H](CCCNC(=N)N)C(=O)N[C@@H](CC1CCCCC1)C(=O)N[C@@H](CO)C(=O)N[C@@H](Cc1c[nH]cn1)C(=O)N[C@@H](CCCCN)C(=O)NCC(=O)N1[C@H](C(=O)NC(C)(C)C(=O)N[C@@H](Cc2ccc(Cl)cc2)C(=O)O)C[C@@H]2CCCC[C@@H]21

molecular target: T1, rat APJ receptor; assay: cell-based or functional assay

Binder	EC50 Rat APJ Receptor
B1	49.2 nM
Palmitoyl-[AC4Abu][AEEA][AEEA][dQ]RP[NMeR][Cha]SHKG[Nip][Nle][Aib][Phe(4-Cl)]-OH [SEQ ID NO: 582]	29.3 nM
B2	8.89 nM
B3	0.991 nM
B4	19.8 nM
B5	4.81 nM
B6	7.68 nM
B7	4.24 nM
B8	14.1 nM
B9	4.42 nM
B10	4.9 nM
B11	0.736 nM

molecular target: T2, human APJ receptor; assay: cell-based or functional assay

Binder	EC50 Human APJ Receptor
B1	5.96 nM
Palmitoyl-[AC4Abu][AEEA][AEEA][dQ]RP[NMeR][Cha]SHKG[Nip][Nle][Aib][Phe(4-Cl)]-OH [SEQ ID NO: 582]	8.5 nM
B2	5.15 nM
B3	1 nM
B4	8.01 nM
B5	1.49 nM
B6	1.1 nM
B7	2.17 nM
B8	3.58 nM
B9	1.78 nM
B10	1.8 nM
B11	0.462 nM
